From patent publication US20130345129A1 (OTSUKA CHEMICAL, published 2013)
No end group written: not given here. asialo oligosaccharide = asialo (digalactose) oligosaccharide chain

T1: mouse GLP-1 receptor (mouse, UniProt O35659 22-463)
T1 sequence (looked up): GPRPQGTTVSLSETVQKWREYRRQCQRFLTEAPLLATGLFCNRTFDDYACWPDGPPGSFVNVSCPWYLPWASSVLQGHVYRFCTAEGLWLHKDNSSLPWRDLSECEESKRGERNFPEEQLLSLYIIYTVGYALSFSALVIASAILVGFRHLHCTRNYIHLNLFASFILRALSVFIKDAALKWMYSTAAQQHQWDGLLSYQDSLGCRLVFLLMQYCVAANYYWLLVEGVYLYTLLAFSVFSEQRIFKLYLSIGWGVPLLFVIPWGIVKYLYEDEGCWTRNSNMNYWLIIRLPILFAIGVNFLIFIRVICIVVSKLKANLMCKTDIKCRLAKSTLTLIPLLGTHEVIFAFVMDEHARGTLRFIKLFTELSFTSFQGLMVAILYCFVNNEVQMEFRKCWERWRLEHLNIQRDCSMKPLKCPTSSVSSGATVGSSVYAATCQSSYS

B1: 6Cys GLP-1-disialo (peptide)
peptide: CHAEGTFTSDVSSYLEGQAAKEFIAWLVKGRG
modifications: disialo oligosaccharide chain added Cys at position 6 (added before 7His; chain attached to Cys with bromoacetamidyl disialo oligosaccharide)

molecular target: T1, mouse GLP-1 receptor; assay: cell-based or functional assay

Compared with HAEGC(disialo oligosaccharide)FTSDVSSYLEGQAAKEFIAWLVKGRG [11Cys GLP-1-disialo], HAEGTFTSDVSSYLEGQAAKEFIAWLVC(asialo oligosaccharide)GRG [34Cys GLP-1-asialo] is higher in “Relative Activity (cAMP synthesis, EC50 relative to GLP-1 = 1)” value (“Relative Activity” below): < 0.1 relative (GLP-1 = 1) for the first, 2.2 relative (GLP-1 = 1) for the second.

HAEC(disialo oligosaccharide)TFTSDVSSYLEGQAAKEFIAWLVKGRG [10Cys GLP-1-disialo] and HAC(disialo oligosaccharide)GTFTSDVSSYLEGQAAKEFIAWLVKGRG [9Cys GLP-1-disialo] cannot be ordered by “Relative Activity” value: < 0.1 relative (GLP-1 = 1) for the first, < 0.1 relative (GLP-1 = 1) for the second.

Going from HAEGTFTSDVSSYLEC(disialo oligosaccharide)QAAKEFIAWLVKGRG [22Cys GLP-1-disialo] to HAEGTFTSDC(disialo oligosaccharide)SSYLEGQAAKEFIAWLVKGRG [16Cys GLP-1-disialo], the “Relative Activity” value falls from 1 relative (GLP-1 = 1) to < 0.1 relative (GLP-1 = 1).

First: HAEGTC(disialo oligosaccharide)TSDVSSYLEGQAAKEFIAWLVKGRG [12Cys GLP-1-disialo]
Second: HAEGTFTSDVSSYLEGQAAC(asialo oligosaccharide)EFIAWLVKGRG [26Cys GLP-1-asialo]
The “Relative Activity” value of the first is lower: < 0.1 relative (GLP-1 = 1) for the first, 0.8 relative (GLP-1 = 1) for the second.

First: HAEGTFTSDVSSYLEGQAAKEFIAWLVKGC(disialo oligosaccharide)G [36Cys GLP-1-disialo]
Second: HAEGTFTC(disialo oligosaccharide)DVSSYLEGQAAKEFIAWLVKGRG [14Cys GLP-1-disialo]
The “Relative Activity” value of the first is higher: 1.9 relative (GLP-1 = 1) for the first, < 0.1 relative (GLP-1 = 1) for the second.

Going from HAEGTFTSDVSSYLEGQC(disialo oligosaccharide)AKEFIAWLVKGRG [24Cys GLP-1-disialo] to HAEGTFTSDVSSYLEGQAAC(disialo oligosaccharide)EFIAWLVKGRG [26Cys GLP-1-disialo], the “Relative Activity” value rises from < 0.1 relative (GLP-1 = 1) to 0.2 relative (GLP-1 = 1).

First: HAEGTFTSDVSSYLEGQAAKEFIC(disialo oligosaccharide)WLVKGRG [30Cys GLP-1-disialo]
Second: HAEGTFTSDVSSYLEGQAAKEFIAWLVKGRGC (disialo oligosaccharide chain added Cys at position 38 (added after 37Gly)) [38Cys GLP-1-disialo]
The “Relative Activity” value of the first is lower: 0.6 relative (GLP-1 = 1) for the first, 1.9 relative (GLP-1 = 1) for the second.

B1 and HAEGTFTSDVSC(disialo oligosaccharide)YLEGQAAKEFIAWLVKGRG [18Cys GLP-1-disialo] cannot be ordered by “Relative Activity” value: < 0.1 relative (GLP-1 = 1) for the first, < 0.1 relative (GLP-1 = 1) for the second.

HAEGTFTSDVSSYLEGQAAKEC(disialo oligosaccharide)IAWLVKGRG [28Cys GLP-1-disialo] and HAEGTFTSDVSSYLEGQAC(disialo oligosaccharide)KEFIAWLVKGRG [25Cys GLP-1-disialo] cannot be ordered by “Relative Activity” value: < 0.1 relative (GLP-1 = 1) for the first, < 0.1 relative (GLP-1 = 1) for the second.

Compared with HAEGTFTSDVSSYC(disialo oligosaccharide)EGQAAKEFIAWLVKGRG [20Cys GLP-1-disialo], HAEGTFTSDVSSYLEGQAAKC(disialo oligosaccharide)FIAWLVKGRG [27Cys GLP-1-disialo] is higher in “Relative Activity” value: < 0.1 relative (GLP-1 = 1) for the first, 0.2 relative (GLP-1 = 1) for the second.

First: HAEGTFTSDVSSYLEGQAAKEFIAWC(disialo oligosaccharide)VKGRG [32Cys GLP-1-disialo]
Second: HAEGTFTSDVSSYLEGQAAKEFIAWLVC(disialo oligosaccharide)GRG [34Cys GLP-1-disialo]
The “Relative Activity” value of the first is lower: < 0.1 relative (GLP-1 = 1) for the first, 0.7 relative (GLP-1 = 1) for the second.

For HC(disialo oligosaccharide)EGTFTSDVSSYLEGQAAKEFIAWLVKGRG [8Cys GLP-1-disialo], the “Relative Activity” value was < 0.1 relative (GLP-1 = 1).
